From PMC7573392, “Monitoring Allosteric Interactions with CXCR4 Using NanoBiT Conjugated Nanobodies” (Cell Chemical Biology, 2020)
Marks after values point to notes of the source that are not given here.

T1: LgBiT-tagged human CXCR4 receptor ( | human, UniProt P61073 2-352, CXCR4 portion only (initiator Met removed (so in the source)); this part carries VUN400, CXCL12, AMD3100 and IT1t binding. Left out: the 5-HT3A signal sequence (presumed cleaved), the N-terminal LgBiT report)
T1 chain: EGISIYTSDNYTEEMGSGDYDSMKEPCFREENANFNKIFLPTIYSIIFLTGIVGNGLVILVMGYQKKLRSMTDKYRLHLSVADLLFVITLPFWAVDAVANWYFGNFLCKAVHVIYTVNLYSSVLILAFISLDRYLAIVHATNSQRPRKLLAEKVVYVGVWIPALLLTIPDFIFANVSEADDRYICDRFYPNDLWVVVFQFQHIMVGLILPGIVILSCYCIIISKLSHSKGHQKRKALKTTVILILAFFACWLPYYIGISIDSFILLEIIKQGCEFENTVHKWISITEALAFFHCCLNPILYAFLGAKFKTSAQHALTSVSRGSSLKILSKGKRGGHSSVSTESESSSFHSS

B1: purified HiBiT-HaloTag fusion protein (peptide)
chain: VSGWRLFKKIS
notes: Fusion protein of circa 34 kDa; also called HiBiT-HaloTag control protein; source: bought: Promega (Cat# N3010)

Legend:
LgBiT-CXCR4 [1] = target: T2, LgBiT-CXCR4 (Homo sapiens, UniProt P61073); assay: NanoBiT saturation binding (complemented luminescence) in HEK293 cells stably expressing LgBiT-CXCR4; settings: fixed concentration: 100 nM CXCL12, 10 μM AMD3100 or 10 μM IT1t (Figure 3E)
T2 construct: GSSG linker and TEV recognition site (EDLYFQS), between LgBiT and CXCR4 (N); expressed in transfected cells; whole cells in A1-A4, isolated membranes in A9/A10
Experimental: Saturation binding with VUN400-HiBiT was performed on HEK 293 cells stably expressing the LgBiT-CXCR4 receptor. Cells were plated at 30,000 cells/well in white 96-well plates previously coated with poly-D-lysine (10 μg/ml in PBS) in 100 μl complete media (DMEM with 10% FCS). After 24 hours, the media was removed and replaced with 100 μl HBSS containing VUN400-HiBiT within the range of 4-500 nM. Where used, CXCL12, AMD3100 or IT1t were also added at this point. The plate was incubated for two hours at 37°C. Furimazine (1:400 final concentration) was added to each well and the plate was incubated for a further 15 minutes at 37°C. Luminescence was measured using the PHERAstar FS plate reader.
Saturation binding curves of VUN400-HiBiT were fitted using the following equation: Specificbinding=Bmax×[B]/[B]+KD where Bmax is the maximal specific binding, [B] is the concentration of VUN400-HiBiT, and KD is the equilibrium dissociation constant (nM).

LgBiT-CXCR4 [2] = target: T2, LgBiT-CXCR4; assay: NanoBiT nanobody displacement binding assay, whole HEK293 cells expressing LgBiT-CXCR4
Experimental: (§1) Full nanobody displacement assays were performed in HEK293 cells stably expressing either the LgBiT-CXCR4 or SNAP-CXCR4 constructs. Cells (30,000 per well) were plated in white 96-well poly-D-lysine coated plates as described above. After 24 hours, media was removed and replaced with 100 μl HBSS. Increasing concentrations of displacing ligands were added to the cells. […] The cells were incubated at 37°C for 2 and a half hours in total. […] Furimazine (1:400 final concentration) was added to each well and the plate was incubated for a further 15 minutes at 37°C. Luminescence was measured using the PHERAstar FS plate reader.

[3] = tested on: T3, endogenous, untagged CXCR4; assay: Nanobody displacement assay in Jurkat T cells (endogenous CXCR4); format: binding, human; settings: 100 nM VUN400-HiBiT with competing ligand 2 h, washed, exogenous LgBiT added, p < 0.05
T3 construct: these cells express high levels of CXCR4 endogenously; host or cells: Jurkat T cells (clone E6-1)
Experimental: Nanobody displacement assays in T-cells were performed by seeding 100,000 Jurkat cells per well into V-bottom 96-well plates in 100μl warm HBSS. Cells were treated with 100 nM VUN400-HiBiT and competing ligands simultaneously and incubated for 2 hours at 37°C. The cells were pelleted by centrifugation at 300g for 5 minutes and the supernatant removed and replaced with 200 μl fresh HBSS. Cells were resuspended via shaking at 1000 r.p.m on an orbital plate shaker for 2 minutes. This wash step was repeated two more times to remove unbound VUN400-HiBiT. The cells were treated with 20 nM exogenous LgBiT and furimazine (1:400 final concentration) and transferred to white 96-well plates and luminescence read using a PHERAstar FS plate reader.

SNAP-CXCR4 [4] = target: T4, SNAP-CXCR4 (Homo sapiens, UniProt P61073); assay: NanoBiT nanobody displacement binding assay, whole HEK293 cells expressing SNAP-CXCR4 (exogenous LgBiT added after washing); parameters: expressed in transfected cells; host or cells: HEK293G cells stably expressing SNAP-CXCR4 (gift of Dr. J. Goulding, University of Nottingham)
T4 sequence (P61073 whole entry): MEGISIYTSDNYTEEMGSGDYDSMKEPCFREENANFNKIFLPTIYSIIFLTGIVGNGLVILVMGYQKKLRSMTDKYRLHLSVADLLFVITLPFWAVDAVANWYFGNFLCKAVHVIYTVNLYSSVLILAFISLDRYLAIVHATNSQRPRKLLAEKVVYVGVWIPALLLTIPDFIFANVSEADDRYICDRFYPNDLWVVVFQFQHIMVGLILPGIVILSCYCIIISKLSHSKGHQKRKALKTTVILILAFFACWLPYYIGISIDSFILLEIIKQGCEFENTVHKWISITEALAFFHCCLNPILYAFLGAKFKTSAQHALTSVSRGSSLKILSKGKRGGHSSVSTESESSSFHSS
Experimental: as §1

SNAP-CXCR4 [5] = target: T4, SNAP-CXCR4; settings: 10 μM AMD3100 (Figure S1)
Source text: Data are mean ± SEM from triplicate determinations in a single experiment. This single
experiment is representative of five separate experiments.
Data are mean ± SEM from triplicate determinations in a single experiment.
This single experiment is representative of five separate experiments.

[6] = target: T1, LgBiT-tagged human CXCR4 receptor; assay: split reporter (BiFC, NanoBiT); association kinetics; increasing concentrations of HiBiT added to HEK293 cells stably expressing LgBiT-CXCR4 in HBSS with furimazine; luminescence over 60 minutes at 37°C; global fit of kon and koff, KD = koff/kon; settings: one partner purified
[7] = 20 nM VUN400-HiBiT, (a) pre-incubation with VUN400-HiBiT
[8] = 20 nM VUN400-HiBiT, (b) simultaneous addition
[9] = 20 nM VUN400-HiBiT, (b) simultaneous addition, 2 h 37°C
[10] = 20 nM VUN400-HiBiT, (c) pre-incubation with ligands
[11] = (c) pre-incubation with ligands 2 h 37°C, then 20 nM VUN400-HiBiT 30 min
[12] = inhibition of 20 nM VUN400-HiBiT binding, (a) pre-incubation with VUN400-HiBiT 30 min, then ligand 2 h 37°C

| Molecule | prevention of VUN400-HiBiT binding to LgBiT-CXCR4 (LgBiT-CXCR4 [1]) | Maximum Inhibition (% 10 μM AMD3100) (LgBiT-CXCR4 [2]; [7]) | Maximum Inhibition (% 10 μM AMD3100) (LgBiT-CXCR4 [2]; [8]) | pIC50 (Mean ± SEM) (LgBiT-CXCR4 [2]; [9]) | Maximum Inhibition (% 10 μM AMD3100) (LgBiT-CXCR4 [2]; [10]) | pIC50 (Mean ± SEM) (LgBiT-CXCR4 [2]; [11]) | pIC50 (Mean ± SEM) (LgBiT-CXCR4 [2]; [12]) | displacement of VUN400-HiBiT from endogenous CXCR4 [3] | Maximum Inhibition (% 10 μM AMD3100) (SNAP-CXCR4 [4]; [7]) | Maximum Inhibition (% 10 μM AMD3100) (SNAP-CXCR4 [4]; [8]) | pIC50 (Mean ± SEM) (SNAP-CXCR4 [4]; [9]) | Maximum Inhibition (% 10 μM AMD3100) (SNAP-CXCR4 [4]; [10]) | pIC50 (Mean ± SEM) (SNAP-CXCR4 [4]; [11]) | pIC50 (Mean ± SEM) (SNAP-CXCR4 [4]; [12]) | effect on VUN400-HiBiT bioluminescence signal at SNAP-CXCR4 (SNAP-CXCR4 [5]) | koff [6] [s⁻¹] | kon [6] [M⁻¹ s⁻¹] | pKD [6] |
| --- | --- | --- | --- | --- | --- | --- | --- | --- | --- | --- | --- | --- | --- | --- | --- | --- | --- | --- |
| CXCL12: chemokine ligand, endogenous orthosteric agonist of CXCR4 (PeproTech) | prevented | 98.2 ± 0.2 | 98.8 ± 0.3 | 8.74 ± 0.13 | 111.5 ± 3.1 ^c % 10 μM AMD3100 | 9.03 ± 0.02 | 8.82 ± 0.12 | displaced | 93.3 ± 8.7 | 92.8 ± 6.7 | 8.05 ± 0.21 ^a | 67.7 ± 11.6 ^c % 10 μM AMD3100 | 8.05 ± 0.41 | 8.14 ± 0.28 ^a | – | – | – | – |
| c1cc(CN2CCCNCCNCCCNCC2)ccc1CN1CCCNCCNCCCNCC1 [AMD3100] | prevented | 100 | 100 | – | 100 % 10 μM AMD3100 | – | – | displaced | 100 | 100 | – | 100 % 10 μM AMD3100 | – | – | able to reduce the bioluminescence signals | – | – | – |
| B1 | – | – | – | – | – | – | – | – | – | – | – | – | – | – | – | 0.00367 | 10000 | 6.43 ± 0.13 |
